Measurements reported in patent publication US11833164B2, “Methods of treating Fabry disease in patients having a mutation in the GLA gene” (Amicus Therapeutics, Inc., priority 2019, dated 2023).
Residue numbers refer to the chain shown, from its start. In names and notes the source's numbering stands.

B1: I359N (protein)
chain: MQLRNPELHLGCALALRFLALVSWDIPGARALDNGLARTPTMGWLHWERFMCNLDCQEEPDSCISEKLFMEMAELMVSEGWKDAGYEYLCIDDCWMAPQRDSEGRLQADPQRFPHGIRQLANYVHSKGLKLGIYADVGNKTCAGFPGSFGYYDIDAQTFADWGVDLLKFDGCYCDSLENLADGYKHMSLALNRTGRSIVYSCEWPLYMWPFQKPNYTEIRQYCNHWRNFADIDDSWKSIKSILDWTSFNQERIVDVAGPGGWNDPDMLVIGNFGLSWNQQVTQMALWAIMAAPLFMSNDLRHISPQAKALLQDKDVIAINQDPLGKQGYQLRQGDNFEVWERPLSGLAWAVAMINRQENGGPRSYTIAVASLGKGVACNPACFITQLLPVKRKLGFYEWTSRLRSHINPTGTVLLQLENTMQMSLKDLL
B2: R363S (protein)
chain: B1 chain with N359I, R363S
B3: S364C (protein)
chain: B1 chain with N359I, S364C
B4: Y365S (protein)
chain: B1 chain with N359I, Y365S
B5: Y365F (protein)
chain: B1 chain with N359I, Y365F
B6: Y365D (protein)
chain: B1 chain with N359I, Y365D
B7: S364P (protein)
chain: B1 chain with N359I, S364P
B8: P362A (protein)
chain: B1 chain with N359I, P362A
B9: R363G (protein)
chain: B1 chain with N359I, R363G
B10: P362S (protein)
chain: B1 chain with N359I, P362S
B11: Y365N (protein)
chain: B1 chain with N359I, Y365N
B12: P362R (protein)
chain: B1 chain with N359I, P362R
B13: I359S (protein)
chain: B1 chain with N359S
B14: R363L (protein)
chain: B1 chain with N359I, R363L
B15: I359V (protein)
chain: B1 chain with N359V
B16: P362H (protein)
chain: B1 chain with N359I, P362H

Each molecule was assayed on mutant form of α-Gal A expressed in HEK-293 cells (assay: HEK assay (GLP HEK / Migalastat Amenability Assay): α-Gal A activity in lysates of transiently transfected HEK-293 cells incubated with or without 10 μM migalastat). Conditions: 10 μM migalastat versus baseline.
Type: cell-based, human
Method in brief: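 Activity reported as 4-MU released (nmol/mg/hr), mean±SEM, from lysates of transiently transfected HEK-293 cells expressing mutant α-Gal A, cultured with or without 10 μM migalastat.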

Row | Molecule | Absolute increase (% WT) | Relative increase
1 | B1 | 12.5 | 1.6
2 | B2 | 86.6 | 2.7
3 | B3 | 40.0 | 1.3
4 | B4 | 18.4 | 1.4
5 | B5 | 21.1 | 1.3
6 | B6 | 19.7 | 1.6
7 | B7 | 63.1 | 1.4
8 | B8 | 40.1 | 1.4
9 | B9 | 72.6 | 2.7
10 | B10 | 53.8 | 1.8
11 | B11 | 22.5 | 1.4
12 | B12 | 23.9 | 1.8
13 | B13 | 29.6 | 1.3
14 | B14 | 62.2 | 3.5
15 | B15 | 31.6 | 1.6
16 | B16 | 33.4 | 3.9

Same assay, conditions: absence of migalastat; percentage of baseline wild-type α-Gal A activity; mean ± SEM

Row | Molecule | Baseline α-Gal A activity (% WT)
17 | B1 | 20.8 ± 1.2
18 | B2 | 50.1 ± 5.9
19 | B3 | 127 ± 10.6
20 | B4 | 49.4 ± 4.1
21 | B5 | 67.7 ± 5.1
22 | B6 | 31.3 ± 2.7
23 | B7 | 143.2 ± 13.7
24 | B8 | 100.8 ± 9.5
25 | B9 | 41.8 ± 5.1
26 | B10 | 71.2 ± 7.7
27 | B11 | 59.7 ± 1.7
28 | B12 | 25 ± 3.1
29 | B13 | 101.6 ± 6.3
30 | B14 | 23.2 ± 1.9
31 | B15 | 51.5 ± 3.4
32 | B16 | 11.2 ± 1

Same assay, conditions: lysates of HEK-293 cells transiently transfected with the mutant form, incubated 5 days in absence of migalastat; mean ± SEM

Row | Molecule | Baseline α-Gal A activity [nmol/mg/h]
33 | B1 | 10862 ± 655
34 | B2 | 16400 ± 1695
35 | B3 | 41263 ± 2389
36 | B4 | 14346 ± 1563
37 | B5 | 19631 ± 2010
38 | B6 | 9119 ± 1027
39 | B7 | 48193 ± 4573
40 | B8 | 35322 ± 3087
41 | B9 | 13990 ± 1613
42 | B10 | 25234 ± 2794
43 | B11 | 19111 ± 869
44 | B12 | 8745 ± 1176
45 | B13 | 37737 ± 2594
46 | B14 | 8123 ± 869
47 | B15 | 20990 ± 1174
48 | B16 | 3713 ± 377

Same assay, conditions: lysates of HEK-293 cells transiently transfected with the mutant form, incubated 5 days with 10 μM migalastat; mean ± SEM

Row | Molecule | 10 μM migalastat α-Gal A activity [nmol/mg/h]
49 | B1 | 17332 ± 879
50 | B2 | 44621 ± 3266
51 | B3 | 53912 ± 3067
52 | B4 | 19484 ± 1899
53 | B5 | 25395 ± 2160
54 | B6 | 14664 ± 1311
55 | B7 | 66731 ± 4698
56 | B8 | 49809 ± 2721
57 | B9 | 37837 ± 2998
58 | B10 | 45209 ± 4138
59 | B11 | 26514 ± 1978
60 | B12 | 15971 ± 1019
61 | B13 | 48055 ± 2727
62 | B14 | 27997 ± 2485
63 | B15 | 34265 ± 1528
64 | B16 | 14620 ± 531

Same assay, conditions: with 10 μM migalastat, 5 days; percentage of baseline wild-type α-Gal A activity; mean ± SEM

Row | Molecule | 10 μM migalastat α-Gal A activity (% WT)
65 | B1 | 33.3 ± 1.8
66 | B2 | 136.7 ± 12.4
67 | B3 | 167 ± 14.8
68 | B4 | 67.8 ± 4.9
69 | B5 | 88.8 ± 5.3
70 | B6 | 51 ± 3.5
71 | B7 | 206.4 ± 20
72 | B8 | 140.9 ± 8.5
73 | B9 | 114.4 ± 10.7
74 | B10 | 125 ± 9
75 | B11 | 82.2 ± 4.5
76 | B12 | 48.9 ± 4.1
77 | B13 | 131.2 ± 8.4
78 | B14 | 85.4 ± 9.5
79 | B15 | 83.1 ± 3.3
80 | B16 | 44.6 ± 1.9
